According to patent publication US20180155431A1 (Hoffmann-La Roche, published 2018):

Target: T1, human angiopoietin 2 (human, UniProt O15123 19-496, limits assumed)
T1 construct: The protein was bought (R&D Systems Cat. No. 623-AN) or produced in house; also called ANG-2; ANGPT2
T1 sequence: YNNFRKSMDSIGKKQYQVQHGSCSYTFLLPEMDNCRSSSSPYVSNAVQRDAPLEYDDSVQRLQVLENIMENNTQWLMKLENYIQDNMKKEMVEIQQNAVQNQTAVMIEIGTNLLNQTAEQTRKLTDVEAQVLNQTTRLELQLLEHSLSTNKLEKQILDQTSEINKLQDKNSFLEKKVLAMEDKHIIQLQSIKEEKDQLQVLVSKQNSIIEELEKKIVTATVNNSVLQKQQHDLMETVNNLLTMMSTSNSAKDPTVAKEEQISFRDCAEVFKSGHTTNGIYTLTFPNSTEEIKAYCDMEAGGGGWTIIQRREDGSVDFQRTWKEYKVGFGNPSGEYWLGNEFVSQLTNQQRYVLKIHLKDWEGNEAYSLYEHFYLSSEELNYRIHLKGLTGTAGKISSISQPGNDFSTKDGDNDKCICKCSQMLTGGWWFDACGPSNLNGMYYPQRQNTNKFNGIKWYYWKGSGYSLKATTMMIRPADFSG
Assay: ANG-2/Tie2 interaction ELISA: antibody dilutions pre-incubated with 0.2 ug/ml human ANG-2, then added to plate-coated human Tie2; bound ANG-2 detected
Experimental: After washing a mixture of 0.5 μg/ml biotinylated anti-Angiopoietin-1/2 clone (R&D Systems #BAF923, BAM0981 R&D Systems, UK) and 1:3000 diluted streptavidin HRP (Roche Diagnostics GmbH, DE, Cat. No. 11089153001) was added for 1 h. Thereafter the plates were washed 6 times with PBST. Plates were developed with freshly prepared ABTS reagent (Roche Diagnostics GmbH, DE, buffer #204 530 001, tablets #11 112 422 001) for 30 minutes at RT. Absorbance was measured at 405 nm.

B1: <ANG-2> LC06 (antibody, V domains shown)
VH: not shown
VL: QPGLTQPPSVSVAPGQTARITCGGNNIGSKSVHWYQQKPGQAPVLVVYDDSDRPSGIPERFSGSNSGNTATLTISRVEAGDEADYYCQVWDSSSDHYVFGTGTKVTVLG
- IC50: 0.1 nM
